Bridge positions count the residues as written; N and C are the ends. Ends that are not written are not given here. COCH2 = acetyl group that carries the bridge
B1: cyclic peptide SEQ ID NO: 175 (peptide)
peptide: YCEQNYLDPEQYQYFIYFK(COCH2)Y
modifications: thioether 2-19 (inferred)
B2: cyclic peptide SEQ ID NO: 204 (peptide)
peptide: YCEENYEDPEQYQYFIYFK(COCH2)Y
modifications: thioether 2-19 (inferred)
B3: cyclic peptide SEQ ID NO: 197 (peptide)
peptide: YCEENYFDPEQYQYFIYFK(COCH2)Y
modifications: thioether 2-19 (inferred)
B4: cyclic peptide SEQ ID NO: 209 (peptide)
peptide: YCEENYLIPEQYQYFIYFK(COCH2)Y
modifications: thioether 2-19 (inferred)
B5: cyclic peptide SEQ ID NO: 200 (peptide)
peptide: YCEENYNDPEQYQYFIYFK(COCH2)Y
modifications: thioether 2-19 (inferred)
B6: cyclic peptide SEQ ID NO: 192 (peptide)
peptide: YCEENDLDPEQYQYFIYFK(COCH2)Y
modifications: thioether 2-19 (inferred)
B7: cyclic peptide SEQ ID NO: 189 (peptide)
peptide: YCEENNLDPEQYQYFIYFK(COCH2)Y
modifications: thioether 2-19 (inferred)
B8: cyclic peptide SEQ ID NO: 213 (peptide)
peptide: YCEENYLWPEQYQYFIYFK(COCH2)Y
modifications: thioether 2-19 (inferred)
B9: cyclic peptide SEQ ID NO: 206 (peptide)
peptide: YCEENYHDPEQYQYFIYFK(COCH2)Y
modifications: thioether 2-19 (inferred)
B10: cyclic peptide SEQ ID NO: 191 (peptide)
peptide: YCEENSLDPEQYQYFIYFK(COCH2)Y
modifications: thioether 2-19 (inferred)
B11: cyclic peptide SEQ ID NO: 177 (peptide)
peptide: YCETNYLDPEQYQYFIYFK(COCH2)Y
modifications: thioether 2-19 (inferred)
B12: cyclic peptide SEQ ID NO: 179 (peptide)
peptide: YCERNYLDPEQYQYFIYFK(COCH2)Y
modifications: thioether 2-19 (inferred)
B13: cyclic peptide SEQ ID NO: 210 (peptide)
peptide: YCEENYLVPEQYQYFIYFK(COCH2)Y
modifications: thioether 2-19 (inferred)
B14: cyclic peptide SEQ ID NO: 202 (peptide)
peptide: YCEENYSDPEQYQYFIYFK(COCH2)Y
modifications: thioether 2-19 (inferred)
B15: cyclic peptide SEQ ID NO: 182 (peptide)
peptide: YCEEWYLDPEQYQYFIYFK(COCH2)Y
modifications: thioether 2-19 (inferred)
B16: cyclic peptide SEQ ID NO: 186 (peptide)
peptide: YCEENLLDPEQYQYFIYFK(COCH2)Y
modifications: thioether 2-19 (inferred)
B17: cyclic peptide SEQ ID NO: 176 (peptide)
peptide: YCESNYLDPEQYQYFIYFK(COCH2)Y
modifications: thioether 2-19 (inferred)
B18: cyclic peptide SEQ ID NO: 185 (peptide)
peptide: YCEETYLDPEQYQYFIYFK(COCH2)Y
modifications: thioether 2-19 (inferred)
B19: cyclic peptide SEQ ID NO: 198 (peptide)
peptide: YCEENYYDPEQYQYFIYFK(COCH2)Y
modifications: thioether 2-19 (inferred)
B20: cyclic peptide SEQ ID NO: 203 (peptide)
peptide: YCEENYTDPEQYQYFIYFK(COCH2)Y
modifications: thioether 2-19 (inferred)
B21: cyclic peptide SEQ ID NO: 196 (peptide)
peptide: YCEENYVDPEQYQYFIYFK(COCH2)Y
modifications: thioether 2-19 (inferred)
B22: cyclic peptide SEQ ID NO: 183 (peptide)
peptide: YCEEQYLDPEQYQYFIYFK(COCH2)Y
modifications: thioether 2-19 (inferred)
B23: cyclic peptide SEQ ID NO: 215 (peptide)
peptide: YCEENYLQPEQYQYFIYFK(COCH2)Y
modifications: thioether 2-19 (inferred)
B24: cyclic peptide SEQ ID NO: 188 (peptide)
peptide: YCEENWLDPEQYQYFIYFK(COCH2)Y
modifications: thioether 2-19 (inferred)
B25: cyclic peptide SEQ ID NO: 214 (peptide)
peptide: YCEENYLNPEQYQYFIYFK(COCH2)Y
modifications: thioether 2-19 (inferred)
B26: cyclic peptide SEQ ID NO: 193 (peptide)
peptide: YCEENRLDPEQYQYFIYFK(COCH2)Y
modifications: thioether 2-19 (inferred)
B27: cyclic peptide SEQ ID NO: 178 (peptide)
peptide: YCEDNYLDPEQYQYFIYFK(COCH2)Y
modifications: thioether 2-19 (inferred)
B28: cyclic peptide SEQ ID NO: 216 (peptide)
peptide: YCEENYLSPEQYQYFIYFK(COCH2)Y
modifications: thioether 2-19 (inferred)
B29: cyclic peptide SEQ ID NO: 201 (peptide)
peptide: YCEENYQDPEQYQYFIYFK(COCH2)Y
modifications: thioether 2-19 (inferred)
B30: cyclic peptide SEQ ID NO: 205 (peptide)
peptide: YCEENYRDPEQYQYFIYFK(COCH2)Y
modifications: thioether 2-19 (inferred)
B31: cyclic peptide SEQ ID NO: 212 (peptide)
peptide: YCEENYLYPEQYQYFIYFK(COCH2)Y
modifications: thioether 2-19 (inferred)
B32: cyclic peptide SEQ ID NO: 194 (peptide)
peptide: YCEENHLDPEQYQYFIYFK(COCH2)Y
modifications: thioether 2-19 (inferred)
B33: cyclic peptide SEQ ID NO: 190 (peptide)
peptide: YCEENQLDPEQYQYFIYFK(COCH2)Y
modifications: thioether 2-19 (inferred)
B34: cyclic peptide SEQ ID NO: 187 (peptide)
peptide: YCEENFLDPEQYQYFIYFK(COCH2)Y
modifications: thioether 2-19 (inferred)
B35: cyclic peptide SEQ ID NO: 195 (peptide)
peptide: YCEENYIDPEQYQYFIYFK(COCH2)Y
modifications: thioether 2-19 (inferred)
B36: cyclic peptide SEQ ID NO: 208 (peptide)
peptide: YCEENYLLPEQYQYFIYFK(COCH2)Y
modifications: thioether 2-19 (inferred)
B37: cyclic peptide SEQ ID NO: 199 (peptide)
peptide: YCEENYWDPEQYQYFIYFK(COCH2)Y
modifications: thioether 2-19 (inferred)
B38: cyclic peptide SEQ ID NO: 180 (peptide)
peptide: YCEHNYLDPEQYQYFIYFK(COCH2)Y
modifications: thioether 2-19 (inferred)
B39: cyclic peptide SEQ ID NO: 181 (peptide)
peptide: YCEEGYLDPEQYQYFIYFK(COCH2)Y
modifications: thioether 2-19 (inferred)
B40: cyclic peptide SEQ ID NO: 211 (peptide)
peptide: YCEENYLFPEQYQYFIYFK(COCH2)Y
modifications: thioether 2-19 (inferred)
B41: cyclic peptide SEQ ID NO: 184 (peptide)
peptide: YCEESYLDPEQYQYFIYFK(COCH2)Y
modifications: thioether 2-19 (inferred)
B42: cyclic peptide SEQ ID NO: 207 (peptide)
peptide: YCEENYLGPEQYQYFIYFK(COCH2)Y
modifications: thioether 2-19 (inferred)

Molecular target: T1, Recombinant Human FGFR2 alpha (IIIc) Fc Chimera Protein, CF (R&D systems, 712-FR-050) (human, UniProt P21802 22-377)
T1 construct: bought; not shown: Fc part of the chimera
T1 sequence (P21802 22-377, change not shown): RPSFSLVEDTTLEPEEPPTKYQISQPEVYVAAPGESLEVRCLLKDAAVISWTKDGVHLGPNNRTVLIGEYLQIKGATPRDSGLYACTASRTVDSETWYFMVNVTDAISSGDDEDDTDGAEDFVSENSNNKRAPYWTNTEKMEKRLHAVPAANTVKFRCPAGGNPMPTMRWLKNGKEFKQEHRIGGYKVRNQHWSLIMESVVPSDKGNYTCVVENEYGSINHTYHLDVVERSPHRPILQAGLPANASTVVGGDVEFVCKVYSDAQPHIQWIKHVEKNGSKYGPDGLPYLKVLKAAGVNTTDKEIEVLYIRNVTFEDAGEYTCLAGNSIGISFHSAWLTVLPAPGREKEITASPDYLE
Assay: ELISA on plate-bound FGFR2-Fc
Protocol: First, 5 ng of Recombinant Human FGFR2 alpha (IIIc) Fc Chimera Protein (R&D systems, 712-FR-050) was immobilized in each well of a 96-well plate, and blocked with Pierce Protein-Free (PBS) Blocking Buffer (Thermo, 37572), and a peptide diluted with Can Get Signal Immunoreaction Enhancer Solution I (TOYOBO, NKB-101) was then added and reacted at room temperature for 3 hours. After washing with 0.05% Tween 20-containing phosphate buffered saline (PBS), an anti-Myc antibody (Cell Signaling, 14038S) diluted with Can Get Signal Immunoreaction Enhancer Solution II (TOYOBO, NKB-101) was added and reacted at room temperature for 2 hours. After washing with 0.05% Tween 20-containing PBS, SuperSignal ELISA Femto Substrate (Thermo, 37075) was added, and the luminescence amount was measured. The dose-response relationship was calculated from using the difference between the luminescence amount in the well in which FGFR was immobilized and the luminescence amount in the well in which FGFR was not immobilized, and the concentration of the peptide at the time of reaction, and the binding affinity to FGFR was evaluated according to the following evaluation criteria. The evaluation result preferably satisfies the evaluation criteria A, B, or C.

| Binder | ELISA luminescence signal at 10 nmol/L peptide, relative to SEQ ID NO: 47 (=1) [ratio] |
| --- | --- |
| B1 | ≥ 0.7 |
| B2 | 0.1 to 0.5 |
| B3 | ≥ 0.7 |
| B4 | 0.1 to 0.5 |
| B5 | 0.1 to 0.5 |
| B6 | 0.1 to 0.5 |
| B7 | 0.5 to 0.7 |
| B8 | 0.5 to 0.7 |
| B9 | ≥ 0.7 |
| B10 | 0.1 to 0.5 |
| B11 | ≥ 0.7 |
| B12 | ≥ 0.7 |
| B13 | 0.1 to 0.5 |
| B14 | 0.5 to 0.7 |
| B15 | 0.1 to 0.5 |
| B16 | 0.1 to 0.5 |
| B17 | ≥ 0.7 |
| B18 | 0.1 to 0.5 |
| B19 | ≥ 0.7 |
| B20 | ≥ 0.7 |
| B21 | ≥ 0.7 |

| Binder | ELISA luminescence signal at 10 nmol/L peptide, relative to SEQ ID NO: 47 (=1) [ratio] |
| --- | --- |
| B22 | 0.1 to 0.5 |
| B23 | ≥ 0.7 |
| B24 | ≥ 0.7 |
| B25 | ≥ 0.7 |
| B26 | 0.1 to 0.5 |
| B27 | ≥ 0.7 |
| B28 | ≥ 0.7 |
| B29 | ≥ 0.7 |
| B30 | ≥ 0.7 |
| B31 | ≥ 0.7 |
| B32 | ≥ 0.7 |
| B33 | 0.1 to 0.5 |
| B34 | ≥ 0.7 |
| B35 | ≥ 0.7 |
| B36 | 0.1 to 0.5 |
| B37 | ≥ 0.7 |
| B38 | ≥ 0.7 |
| B39 | 0.5 to 0.7 |
| B40 | ≥ 0.7 |
| B41 | 0.1 to 0.5 |
| B42 | ≥ 0.7 |
